Measurements reported in US7638295B2, “Assays for identifying modulators of the hydroxylation of ankyrin repeat proteins by 2-oxoglutarate dependent oxygenase and methods of using the same” (priority 2004, dated 2009).
One block for each molecule: values may come before it.

Columns and labels:
FIH [1] = target: T1, FIH (Homo sapiens, UniProt Q9NWT6); assay: LC-MS analysis of peptide substrates after incubation with FIH; type: biochemical; settings: after incubation with FIH under standard assay conditions
T1 construct: made in house
Experimental: A Jupiter C4 HPLC column (15 cm×4.6 mm) was used to purify the substrate peptides following incubation with FIH using a linear gradient of 5-95% acetonitrile/0.05% formic acid at a flow rate of 1 ml/min. The eluate from the column was analysed by a MICROMASS™ ZMD quadrupole mass spectrometer in positive mode.
(§1) To check for direct peptide substrate hydroxylation, assay mixtures with each of the peptide substrates were analysed by both NMR and LC-MS.

FIH [2] = target: T1, FIH; assay: FIH assay: decarboxylation of radiolabelled 2OG stimulated by substrate; type: biochemical; settings: for Stimulation of decarboxylation of 2OG by substrate: recombinant FIH (>95% pure) incubated with each peptide; for % activity relative to GST HIF-1α 786-826: substrate incubated with FIH, ascorbate, 2OG, Fe, catalase, 50 mM Tris-HCl pH 7.5, 37° C., 20 minutes; for Activity + FIH (relative to synthetic HIF1alphaCAD): ankyrin peptide substrates, CAD standard peptide = 100
Experimental: The peptides shown in Table 1 were tested as potential substrates with purified FIH. The proposed sites of asparaginyl hydroxylation are highlighted in the Table.
In addition p105 ARD and IkappaB-alpha were also assayed as substrates. The substrates were assayed for decarboxylation of 2OG using radiolabelled 2OG as reported in Hewitson et al., J. Biol. Chem. (2002) 277 26351-26355. FIH was incubated with […] of each substrate together with ascorbate, 2OG, Fe and catalase in 50 mM Tris-HCl, pH 7.5 at 37° C. for 20 minutes.
Highly purified (>95% pure) recombinant FIH was incubated individually with each of the p105, IkappaB-alpha and FEM-1 peptides as potential substrates using an assay that measures decarboxylation of 2OG. […] Mutation of the proposed asparaginyl residue to be hydroxylated by FIH in p105 ARD to an alanine residue led to a substantial decrease in 2OG turnover. Incubation of FIH with IkappaB-alpha under standard assay conditions also stimulated turnover to a similar extent as observed for p105 ARD (Table 2).

FIH [3] = target: T1, FIH; assay: 2D-NMR of peptides after incubation with FIH; type: biochemical; settings: standard assay conditions
Experimental: Both the FEM-1 and IkappaB-alpha peptides (2 mg) were incubated with FIH under standard assay conditions. Peptides were purified from the assay mixture using a Jupiter C4 HPLC column (15 cm×4.6 mm) with a linear gradient of 5-95% acetonitrile. Peptides were lyophilised and then redissolved in neat ^2H2O containing 1,4-dioxan as the internal chemical shift reference (^1H 3.750, ^13C 67.80 p.p.m.). NMR spectra were obtained using a Bruker Avance DRX500 equipped with an inverse-broadband pulsed-field gradient probe.
as §1

[4] = tested on: 2-OG dependent oxygenases; assay: Assays in which 3-fluoro 2-OG replaces 2-OG as co-substrate; type: biochemical; settings: compound replaces 2-OG under analogous conditions
Excerpt: [drawing 5] where each R^1, which are the same or different, is as defined above; R^11 represents OH or R^10NH where R^10 is HO, R^1CO or HOOC(X)x wherein R^11 is as defined above, x is 0 or 1 and X is R^1R^1C wherein each R^1, which are the same or different, is as defined above; or R^10 is an amino acid residue H2N(R^1R^1C)CO— wherein each R^1, which are the same or different, is as defined above; n is 1 or 2 and R^12 is H or straight or branched C1 to C6 alkyl; or a salt thereof. Typically X is CH2 or CHOH. Another aspect of the invention concerns analogues of 2-OG that act as improved (relative to 2-OG) co-substrates for the 2-OG dependent oxygenases. Such a compound is 3-fluoro 2-OG.

2-OG oxygenases = settings: no test described in this patent; cited from earlier work
FIH [5] = target: T1, FIH; assay: Tryptic digest and MALDI-TOF mass spectrometry after incubation with FIH; type: biochemical; settings: incubated with FIH under standard assay conditions, then tryptic digestion; linear and reflectron mode
Experimental: For in-gel digests, gel pieces were incubated with […] in 20 mM ammonium bicarbonate and incubated at 37° C. for 16 hrs. For solution digests, after incubation with FIH under standard assay conditions, a 25 μM sample of substrate was removed from the assay, combined with 2.5 μM trypsin in 25 mM ammonium bicarbonate and incubated at room temperature for 8 hours.
Both in vitro and in vivo produced p105 samples were analysed using an Ettan™ MALDI-ToF Pro mass spectrometer in reflectron mode (Amersham Biosciences) with ANG III and hACTH peptides as internal standards. Tryptic fragments of in vitro produced IkappaB-alpha were analysed using a MALDI-TOF 2T mass spectrometer (MICROMASS™) in reflectron mode using Substance P, hACTH and insulin (B chain, oxidized) calibration standards.
Recombinant IκB-α was incubated with FIH under standard assay conditions followed by tryptic digestion. The resulting tryptic fragments were analysed using both linear and reflectron mode MALDI-TOF mass spectrometry.

T1 sequence (Q9NWT6 whole entry): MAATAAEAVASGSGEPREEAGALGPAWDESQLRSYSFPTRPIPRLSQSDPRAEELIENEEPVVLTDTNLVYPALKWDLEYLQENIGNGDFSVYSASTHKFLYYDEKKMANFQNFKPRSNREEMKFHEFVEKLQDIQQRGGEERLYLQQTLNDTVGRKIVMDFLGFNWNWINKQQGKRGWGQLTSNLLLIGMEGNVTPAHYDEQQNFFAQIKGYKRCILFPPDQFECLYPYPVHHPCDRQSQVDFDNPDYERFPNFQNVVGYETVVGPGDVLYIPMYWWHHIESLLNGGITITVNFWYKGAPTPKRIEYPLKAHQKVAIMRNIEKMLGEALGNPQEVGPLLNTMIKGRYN

Hydroxylation of peptide observed by LC-MS analysis (FIH [1]): hydroxylated
Stimulation of decarboxylation of 2OG by substrate (FIH [2]): roughly equivalent to HIF-1α CAD
% activity relative to GST HIF-1α 786-826 (FIH [2]): 111%
Molecule: IkBa 21 mer: fragment of IκB-α, YLGIVELLVSLGADVNAQEPC (SEQ ID NO: 1) (listed as Homo sapiens)

Hydroxylation of peptide observed by LC-MS analysis (FIH [1]): Yes
Activity + FIH (relative to synthetic HIF1alphaCAD) (FIH [2]): 168
Molecule: FGIF: fragment of FGIF, NTRVASFLLQHDADINAQTK (SEQ ID NO: 20) (listed as Homo sapiens)

Hydroxylation of peptide observed by LC-MS analysis (FIH [1]): Yes
Activity + FIH (relative to synthetic HIF1alphaCAD) (FIH [2]): 27.8
Molecule: 2-5A-d-R: fragment of 2-5A-d-R, VEVLKILLDEMGADVNACDN (SEQ ID NO: 16) (listed as Homo sapiens)

Hydroxylation of peptide observed by LC-MS analysis (FIH [1]): Yes
Activity + FIH (relative to synthetic HIF1alphaCAD) (FIH [2]): 100
% activity relative to GST HIF-1α 786-826 (FIH [2]): 75%
Molecule: CAD: HIF C-terminal transactivation domain standard peptide DESGLPQLTSYDCEVNAPI (SEQ ID NO: 11) (listed as Homo sapiens) [reference compound]

Hydroxylation of peptide observed by LC-MS analysis (FIH [1]): hydroxylated
Stimulation of decarboxylation of 2OG by substrate (FIH [2]): roughly equivalent to HIF-1α CAD
% activity relative to GST HIF-1α 786-826 (FIH [2]): 89%
Molecule: FEM-1 21 mer: fragment of FEM-1, NALVTKLLLDCGAEVNAVDNE (SEQ ID NO: 3) (listed as Homo sapiens)
2D-NMR spectra of peptide after incubation with FIH (FIH [3]): consistent with asparaginyl hydroxylation

Hydroxylation of peptide observed by LC-MS analysis (FIH [1]): Yes
Activity + FIH (relative to synthetic HIF1alphaCAD) (FIH [2]): 116
Molecule: Gankyrin/p28-II: fragment of Gankyrin/p28-II, RDEIVKALLGKGAQVNAVNQ (SEQ ID NO: 17) (listed as Homo sapiens)

% activity relative to GST HIF-1α 786-826 (FIH [2]): 100%
Molecule: GST HIF-1α 786-826: glutathione-S-transferase tagged fragment of the HIF transactivation domains (residues 786-826) [reference compound]

Hydroxylation of peptide observed by LC-MS analysis (FIH [1]): Yes
Activity + FIH (relative to synthetic HIF1alphaCAD) (FIH [2]): 107
Molecule: GABPbeta: fragment of GABPbeta, HASIVEVLLKHGADVNAKDM (SEQ ID NO: 14) (listed as Homo sapiens)

Hydroxylation of peptide observed by LC-MS analysis (FIH [1]): Yes
Activity + FIH (relative to synthetic HIF1alphaCAD) (FIH [2]): 122
Molecule: M110: fragment of M110, YTEVLKLLIQAGYDVNIKDY (SEQ ID NO: 19) (listed as Homo sapiens)

Hydroxylation of peptide observed by LC-MS analysis (FIH [1]): Yes
Activity + FIH (relative to synthetic HIF1alphaCAD) (FIH [2]): 154
Molecule: Myotrophin: fragment of Myotrophin, QLEILEFLLLKGADINAPDK (SEQ ID NO: 18) (listed as Homo sapiens)

More lines, now with the values behind:

Molecule: Tankyrase 1/2: fragment of Tankyrase, NLEVAEYLLEHGADVNAQDK (SEQ ID NO: 15) (listed as Homo sapiens)
Hydroxylation of peptide observed by LC-MS analysis (FIH [1]): Yes
Activity + FIH (relative to synthetic HIF1alphaCAD) (FIH [2]): 107

Molecule: p19-INK-4d: fragment of P19-INK4d, FLDTLKVLVEHGADVNVPDG (SEQ ID NO: 13) (listed as Homo sapiens)
Hydroxylation of peptide observed by LC-MS analysis (FIH [1]): Yes
Activity + FIH (relative to synthetic HIF1alphaCAD) (FIH [2]): 124

Molecule: O=C(O)CC(F)C(=O)C(=O)O (stereo not drawn) [3-fluoro 2-OG, 3-fluoro-2-oxoglutaric acid]
Level of asparagine hydroxylation as co-substrate compared with 2-OG [4]: higher level of asparagine hydroxylation

Molecule: p105 21 mer: fragment of p105, SLPCLLLLVAAGADVNAQEQK (SEQ ID NO: 2) (listed as Homo sapiens)
2D-NMR spectra of peptide after incubation with FIH (FIH [3]): consistent with asparaginyl hydroxylation
Stimulation of decarboxylation of 2OG by substrate (FIH [2]): roughly equivalent to HIF-1α CAD
% activity relative to GST HIF-1α 786-826 (FIH [2]): 100%

Molecule: O=C(O)CC1CC(=O)N(O)C1=O (stereo not drawn) [Is52, (1-hydroxy-2,5-dioxo-pyrrolidin-3-yl) acetic acid]
Activity (in words) (2-OG oxygenases): highly active

B1: IkappaB-alpha: recombinant IκB-α protein expressed in Escherichia coli from iκB-α/pGEX-2T construct (protein, UniProt P25963 1-317, looked up)
NF-kappa-B inhibitor alpha: MFQAAERPQEWAMEGPRDGLKKERLLDDRHDSGLDSMKDEEYEQMVKELQEIRLEPQEVPRGSEPWKQQLTEDGDSFLHLAIIHEEKALTMEVIRQVKGDLAFLNFQNNLQQTPLHLAVITNQPEIAEALLGAGCDPELRDFRGNTPLHLACEQGCLASVGVLTQSCTTPHLHSILKATNYNGHTCLHLASIHGYLGIVELLVSLGADVNAQEPCNGRTALHLAVDLQNPDLVSLLLKCGADVNRVTYQGYSPYQLTWGRPSTRIQQQLGQLTLENLQMLPESEDEESYDTESEFTEFTEDELPYDDCVFGGQRLTL
Hydroxylation of tryptic fragment (MALDI-TOF) (FIH [5]): hydroxylation of the fragment
% activity relative to GST HIF-1α 786-826 (FIH [2]): 144%

B2: p105 ARD: ankyrin repeat domain of p105, amino acid residues 537-809 (SEQ ID NO: 22), GST tag cleaved (protein, listed as Homo sapiens)
chain: TAVQDENGDSVLHLAIIHLHSQLVRDLLEVTSGLISDDIINMRNDLYQTPLHLAVITKQEDVVEDLLRAGADLSLLDRLGNSVLHLAAKEGHDKVLSILLKHKKAALLLDHPNGDGLNAIHLAMMSNSLPCLLLLVAAGADVNAQEQKSGRTALHLAVEHDNISLAGCLLLEGDAHVDSTTYDGTTPLHIAAGRGSTRLAALLKAAGADPLVENFEPLYDLDDSWENAGEDEGVVPGTTPLDMATSWQVFDILNGKPYEPEFTSDDLLAQGDM
% activity relative to GST HIF-1α 786-826 (FIH [2]): 164%

B3: GST p105 ARD: ankyrin repeat domain of p105 (residues 537-809) downstream of glutathione S-transferase (protein)
chain: AVQDENGDSVLHLAIIHLHSQLVRDLLEVTSGLISDDIINMRNDLYQTPLHLAVITKQEDVVEDLLRAGADLSLLDRLGNSVLHLAAKEGHDKVLSILLKHKKAALLLDHPNGDGLNAIHLAMMSNSLPCLLLLVAAGADVNAQEQKSGRTALHLAVEHDNISLAGCLLLEGDAHVDSTTYDGTTPLHIAAGRGSTRLAALLKAAGADPLVENFEPLYDLDDSWENAGEDEGVVPGTTPLDMATSWQVFDILNGKPYEPEFTSDDLLAQGDM
modifications: left off: a dimerising Fc or GST
notes: ankyrin repeat domain of p105 (residues 537-809) downstream of glutathione S-transferase
% activity relative to GST HIF-1α 786-826 (FIH [2]): 129%
